Results reported in article PMC7892883, “Transcription activation by a sliding clamp” (Nature Communications, 2021).

Tests used:
[1] = target: T1, E. coli RNA polymerase β′ subunit (E. coli, UniProt P0A8T7 1-1407); assay: cryo-EM structure; 0.8 uM E. coli RNAP incubated with 0.8 uM gp55, 0.8 uM gp33 and 0.8 uM gp45 homotrimer 10 min on ice, then with nucleic acid scaffold, gp44/gp62 complex, gp32 and dATP 20 min at 30 °C in transcription buffer; 3D classification gave RPo-gp55 (3.6 Å) and TAC-gp45 (4.5 Å); promoter DNA present; conditions: both partners purified
T1 construct: RNA polymerase β′ subunit, E. coli; Stood in the structures as a subunit of RNAP core; also called RNAP β′ subunit; source: E. coli BL21(DE3) with plasmid pIA900, purified as part of RNAP core enzyme

[2] = target: E. coli RNA polymerase core;gp55 H154X (C-terminal region truncated) (Escherichia coli;bacteriophage T4, UniProt P0A7Z4;P0A8V2;P0A8T7;P0A800;P04524 1-329;1-1342;1-1407;1-91;1-153, |); assay: EMSA; heparin 0.1 mg/ml challenge; forms RPo as effectively as full-length gp55; EMSA: 0.4 uM gp55, 0.2 uM RNAP, 0.2 uM DNA in 10 mM HEPES pH 7.5, 50 mM KCl, 5% glycerol, 0.1 mg/ml heparin; DNA 20 min at 37 C, heparin 1 min at 22 C; 5% PAGE; conditions: protein: recombinant;recombinant; tags: beta' C-terminal His tag (stated for pull-down);none stated; chain copies: 2;1;1;1;1; label: none (gel stained); blunt
[3] = target: T2, E. coli RNA polymerase β subunit (E. coli, UniProt P0A8V2 1-1342); assay: cryo-EM structure; 0.8 uM E. coli RNAP incubated with 0.8 uM gp55, 0.8 uM gp33 and 0.8 uM gp45 homotrimer 10 min on ice, then with nucleic acid scaffold, gp44/gp62 complex, gp32 and dATP 20 min at 30 °C in transcription buffer; 3D classification gave RPo-gp55 (3.6 Å) and TAC-gp45 (4.5 Å); promoter DNA present; conditions: both partners purified
T2 construct: RNA polymerase β subunit, E. coli; holds the β flap with the flap tip helix (FTH); Stood in the structures as a subunit of RNAP core; also called RNAP β subunit; source: E. coli BL21(DE3) with plasmid pIA900, purified as part of RNAP core enzyme

| Binder | binding result [1] | binding result [2] | binding result [3] |
| --- | --- | --- | --- |
| bacteriophage T4 gp55 (promoter specificity factor) (natural protein, UniProt P04524 1-185, looked up, also called full-length gp55; wild-type protein) MSETKPKYNYVNNKELLQAIIDWKTELANNKDPNKVVRQNDTIGLAIMLIAEGLSKRFNFSGYTQSWKQEMIADGIEASIKGLHNFDETKYKNPHAYITQACFNAFVQRIKKERKEVAKKYSYFVHNVYDSRDDDMVALVDETFIQDIYDKMTHYEESTYRTPGAEKKSVVDDSPSLDFLYEAND | binds | – | – |
| T4 late promoter EMSA scaffold (dsDNA) DNA 1: CTAATAAAGAGCTCAGCACTATTACTGAGAGTATAAATACTCCTGATACTGAAGCAGCCGGACT DNA 2: AGTCCGGCTGCTTCAGTATCAGGAGTATTTATACTCTCAGTAATAGTGCTGAGCTCTTTATTAG | – | binds | – |
| bacteriophage T4 gp33 (coactivator) (natural protein, source: E. coli BL21(DE3), pET28a-NH-gp33, purified (Ni-NTA, Mono Q, Superdex 200)) MTQFSLNDIRPVDETGLSEKELSIKKEKDEIAKLLDRQENGFIIEKMVEEFGMSYLEATTAFLEENSIPETQFAKFIPSGIIEKIQSEAIDENLLRPSVVRCEKTNTLDFLL | binds | – | binds |
